From publication PMC4312765 come the findings set out here.

In this assay the target is Dpy30 C-terminal domain (human), Q9C005. Briefly: ITC; Dpy30FL or Dpy30C with synthetic DBM peptides; conditions not shown.
Sequence of Dpy30 C-terminal domain (human), Q9C005 (Q9C005 45-99): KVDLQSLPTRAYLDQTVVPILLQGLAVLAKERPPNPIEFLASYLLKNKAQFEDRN

For the molecule DTLYKEQIAEDIVWDIIDELEQIALQQ (modifications not checked) [Bre2 Dpy30-binding motif peptide], the stoichiometry N (usually the number of molecules, sites or subunits per partner or assembly) is 0.5.
